Reference: paper PMC2444025
Like-named read-outs stand apart in the source and are kept apart here.

Tests used:
[1] = system: Immunoglobulin E (IgE), human myeloma (human); test: DNA microarray fluorescence; details: Blocking buffer: 10 mg/mL casein, 0.1% Tween-20, 8.1 mM Na2HPO4 (printed N2HPO4), 1.1 mM KH2PO4, 2.7 mM KCl, 137 mM NaCl (138 mM also listed), 1 mM MgCl2, pH 7.
[2] = system: Immunoglobulin E (IgE), human myeloma (human); details: in solution; full-length clone; Blocking buffer: 10 mg/mL casein, 0.1% Tween-20, 8.1 mM Na2HPO4 (printed N2HPO4), 1.1 mM KH2PO4, 2.7 mM KCl, 137 mM NaCl (138 mM also listed), 1 mM MgCl2, pH 7.; cited from earlier work

CTACCTACGATCTGACTAGCCAATGAGTGTACCACGTTTATCCGTCCCTCCTAGTGGCGTGCTTACTCTCATGTAGTTCC [D 17.0]
Kd [1]: > 100 nM
Kd [2]: 9 nM
